These results are taken from the supplement of paper PMC7877785.

± gives the uncertainty stated by the source.

This data set is described as follows: self-splicing fitness, log relative to wild type (ln ratio); higher = more splicing; Tetrahymena group I intron in knt gene, E. coli kanamycin selection, DiMSum; sequences stand for … in CUCUCU…GGAGGGAAAAGUUAUCAGGCAUGCACCUGGUAGCUAGUCUUUAAACCAAUAGAUUGCAUCGGUUUAAAAGGCAAGACCGUCAAAUUGCGGGAAAGGGGUCAACAGCCGUUCAGUACCAAGUCUCAGGGGAAACUUUGAGAUGGCCUUGCAAAGGGUAUGGUAAUAAGCUGACGGACAUGGUCCUAACCACGCAGCCAAGUCCUAAGUCAACAGAUCUUCUGUUGAUAUGGAUGCAGUUCACAGACUAAAUGUCGGUCGGGGAAGAUGUAUUCUUCUCAUAAGAUAUAGUCGGACCUCUCCUUAAUGGGAGCUAGCGGAUGAAGUGAUGCAACACUGGAGCCGCUGGGAACUAAUUUGUAUGCGAAAGUAUAUUGAUUAGUUUUGGAGUACUCGUGGUCG
The gist of the method: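 Colonies from six replicate transformations of E. coli BL21(DE3) were pooled and amplicon-sequenced on an Illumina HiSeq 2500. The library placed an intron with all eight P1ex-region nucleotides randomised inside the knt kanamycin-resistance gene on pET-22b(+), and cells grew overnight at 37°C or 30°C on LB agar with or without 25 μg/mL kanamycin (plus 100 μg/mL carbenicillin, 50 μM IPTG, 0.2% rhamnose). Fitness is the DiMSum error-weighted combination of wild-type-normalised replicate fold changes, kanamycin versus none.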

On to GCGCAGCAAUAUUACGACCC, for which the “self-splicing fitness (ln)” value by setting is: (30 °C) 0.715 ± 0.26; (37 °C) 0.34 ± 0.27.
As to GCGCAGCAAUAUUACGAUAG, the “self-splicing fitness (ln)” value (30 °C) is -2.97 ± 0.16 and the “self-splicing fitness (ln)” value (37 °C) was -0.857 ± 0.12.
For GCGCAGCAAUAUUACGAUCA, in that order: -1.5 ± 0.14 and -0.594 ± 0.15.
On to GCGCAGCAAUAUUACGAUGG, for which the “self-splicing fitness (ln)” value is, setting by setting: (30 °C) -1.42 ± 0.11; (37 °C) 0.113 ± 0.16.
For GCGCAGCAAUAUUACGAUUA, the “self-splicing fitness (ln)” value is, setting by setting: (30 °C) -1.02 ± 0.13; (37 °C) -1.48 ± 0.13.
Consider GCGCAGCAAUAUUACGCCAU, for which the “self-splicing fitness (ln)” value was -3.8 ± 0.38 (30 °C) and -1.84 ± 0.3 (37 °C).
As to GCGCAGCAAUAUUACGCCUC, the “self-splicing fitness (ln)” value runs as follows: (30 °C) 0.178 ± 0.29; (37 °C) -1.24 ± 0.29.
Consider GCGCAGCAAUAUUACGCUAA, for which the “self-splicing fitness (ln)” value is -1.42 ± 0.085 (30 °C) and -1.06 ± 0.11 (37 °C).
For GCGCAGCAAUAUUACGCUUA, in that order: -0.793 ± 0.062 and -0.338 ± 0.067.
For GCGCAGCAAUAUUACGGAGC, in that order: -2.35 ± 0.26 and -2.38 ± 0.49.
On the same counts, the results for GCGCAGCAAUAUUACGGAUG are -1.72 ± 0.1 and -1.39 ± 0.12.
GCGCAGCAAUAUUACGGCCG: the “self-splicing fitness (ln)” value is -2.99 ± 0.38 (30 °C) and -2.26 ± 0.26 (37 °C).
On the same counts, the results for GCGCAGCAAUAUUACGGCGC are -2.58 ± 0.21 and -1.98 ± 0.24.
GCGCAGCAAUAUUACGGGUC: the “self-splicing fitness (ln)” value (30 °C) was -2.71 ± 0.11 and the “self-splicing fitness (ln)” value (37 °C) was -0.449 ± 0.092.
For the sequence GCGCAGCAAUAUUACGGUCA, the “self-splicing fitness (ln)” value (30 °C) was -1.41 ± 0.12 and the “self-splicing fitness (ln)” value (37 °C) is -1.49 ± 0.099.
For GCGCAGCAAUAUUACGUCUC, in that order: -0.0041 ± 0.098 and 0.525 ± 0.12.
On the same counts, the results for GCGCAGCAAUAUUACGUUCC are -0.792 ± 0.096 and -0.406 ± 0.13.
On the same counts, the results for GCGCAGCAAUAUUACGUUGC are -2.95 ± 0.14 and -2.51 ± 0.27.
Turning to GCGCAGCAAUAUUACGUUUG, the “self-splicing fitness (ln)” value is -1.86 ± 0.14 (30 °C) and -1.76 ± 0.14 (37 °C).
Regarding GCGGAGCAAUAUUACGAUAA, the “self-splicing fitness (ln)” value (37 °C) is -2.08 ± 0.35.
As for GCGGAGCAAUAUUACGGACA, the “self-splicing fitness (ln)” value by setting is: (30 °C) -1.62 ± 0.21; (37 °C) -2.26 ± 0.31.
With GCGGAGCAAUAUUACGGAUU, the “self-splicing fitness (ln)” value (30 °C) was -3.69 ± 0.27 and the “self-splicing fitness (ln)” value (37 °C) was -1.28 ± 0.2.
In the case of GCGGAGCAAUAUUACGGCUC, the “self-splicing fitness (ln)” value (30 °C) was -2.05 ± 0.36.
As to GCGGAGCAAUAUUACGGGCC, under “30 °C”, the “self-splicing fitness (ln)” value was -2.57 ± 0.42.
As to GCGGAGCAAUAUUACGGUCU, the “self-splicing fitness (ln)” value was -3.04 ± 0.44 (30 °C) and -2.35 ± 0.36 (37 °C).
For GCGGAGCAAUAUUACGUACC, in that order: -3.69 ± 0.36 and -0.124 ± 0.43.
Regarding GCGGAGCAAUAUUACGUGGA, the “self-splicing fitness (ln)” value reads like this: (30 °C) -3.37 ± 0.38; (37 °C) -2.38 ± 0.42.
On the same counts, the results for GCGGAGCAAUAUUACGUGGG are -2.01 ± 0.3 and -2.25 ± 0.34.
Regarding GCGGAGCAAUAUUACGUUAA, the “self-splicing fitness (ln)” value reads like this: (30 °C) -2.66 ± 0.25; (37 °C) -2.32 ± 0.3.
Consider GCGGAGCAAUAUUACGUUGU, for which the “self-splicing fitness (ln)” value reads like this: (30 °C) -2.96 ± 0.13; (37 °C) -1.79 ± 0.14.
On the same counts, the results for GCGUAGCAAUAUUACGAAAA are -2.22 ± 0.41 and -1.48 ± 0.25.
On the same counts, the results for GCGUAGCAAUAUUACGAACU are -0.546 ± 0.13 and -0.322 ± 0.11.
GCGUAGCAAUAUUACGACUA: the “self-splicing fitness (ln)” value (30 °C) is 0.106 ± 0.14 and the “self-splicing fitness (ln)” value (37 °C) is 0.571 ± 0.14.
On the same counts, the results for GCGUAGCAAUAUUACGCCAU are -2.97 ± 0.31 and -2.93 ± 0.47.
In the case of GCGUAGCAAUAUUACGCCGC, the “self-splicing fitness (ln)” value (30 °C) is -2.36 ± 0.42.
With GCGUAGCAAUAUUACGCGGU, the “self-splicing fitness (ln)” value is, setting by setting: (30 °C) -2.42 ± 0.29; (37 °C) -2.48 ± 0.3.
On the same counts, the results for GCGUAGCAAUAUUACGCGUC are -2.75 ± 0.28 and -2.06 ± 0.46.
On the same counts, the results for GCGUAGCAAUAUUACGCUAG are -2.9 ± 0.2 and -2.54 ± 0.29.
As to GCGUAGCAAUAUUACGCUCG, the “self-splicing fitness (ln)” value is, setting by setting: (30 °C) -3.75 ± 0.32; (37 °C) -1.08 ± 0.2.
For the sequence GCGUAGCAAUAUUACGCUUC, the “self-splicing fitness (ln)” value (37 °C) is -0.836 ± 0.35.
Take GCGUAGCAAUAUUACGGAUA: the “self-splicing fitness (ln)” value was -1.67 ± 0.13 (30 °C) and -0.826 ± 0.13 (37 °C).
On the same counts, the results for GCGUAGCAAUAUUACGGCAU are -0.91 ± 0.061 and -0.0121 ± 0.072.
For GCGUAGCAAUAUUACGGGAU, in that order: -1.51 ± 0.14 and -1.38 ± 0.21.
On the same counts, the results for GCGUAGCAAUAUUACGGUAC are -2.72 ± 0.25 and -1.44 ± 0.19.
Take GCGUAGCAAUAUUACGGUCC: the “self-splicing fitness (ln)” value was -1.23 ± 0.38 (30 °C) and -1.02 ± 0.3 (37 °C).
With GCGUAGCAAUAUUACGUCAG, the “self-splicing fitness (ln)” value by setting is: (30 °C) -1.8 ± 0.4; (37 °C) -1.23 ± 0.4.
As for GCGUAGCAAUAUUACGUGGU, the “self-splicing fitness (ln)” value (30 °C) is -3.53 ± 0.19 and the “self-splicing fitness (ln)” value (37 °C) is -3.64 ± 0.22.
On the same counts, the results for GCGUAGCAAUAUUACGUUCA are -0.985 ± 0.11 and -0.728 ± 0.12.
GCUAAGCAAUAUUACGAACG: the “self-splicing fitness (ln)” value is -0.806 ± 0.068 (30 °C) and 0.22 ± 0.097 (37 °C).
GCUAAGCAAUAUUACGAACU: the “self-splicing fitness (ln)” value was -0.229 ± 0.079 (30 °C) and 0.203 ± 0.095 (37 °C).
For GCUAAGCAAUAUUACGAUCC, in that order: -0.136 ± 0.12 and -0.278 ± 0.14.
For GCUAAGCAAUAUUACGAUCG, in that order: -1.1 ± 0.1 and -0.997 ± 0.12.
For GCUAAGCAAUAUUACGCAAU, in that order: -1.55 ± 0.17 and -1.75 ± 0.15.
On to GCUAAGCAAUAUUACGCGCA, for which the “self-splicing fitness (ln)” value (30 °C) was -0.989 ± 0.1 and the “self-splicing fitness (ln)” value (37 °C) was -0.114 ± 0.12.
For GCUAAGCAAUAUUACGCUAC, in that order: -2.37 ± 0.15 and -2.44 ± 0.26.
For GCUAAGCAAUAUUACGCUCC, in that order: -1.01 ± 0.13 and -1.07 ± 0.18.
For GCUAAGCAAUAUUACGCUUC, in that order: -2.89 ± 0.18 and -2.56 ± 0.23.
In the case of GCUAAGCAAUAUUACGGAGG, the “self-splicing fitness (ln)” value (30 °C) was -1.11 ± 0.14 and the “self-splicing fitness (ln)” value (37 °C) was -1.65 ± 0.29.
For the sequence GCUAAGCAAUAUUACGGAGU, the “self-splicing fitness (ln)” value reads like this: (30 °C) -4.27 ± 0.27; (37 °C) -3.14 ± 0.26.
Turning to GCUAAGCAAUAUUACGGCGC, the “self-splicing fitness (ln)” value by setting is: (30 °C) -1.55 ± 0.11; (37 °C) -0.159 ± 0.16.
With GCUAAGCAAUAUUACGGCGU, the “self-splicing fitness (ln)” value is -0.935 ± 0.068 (30 °C) and -0.141 ± 0.091 (37 °C).
Turning to GCUAAGCAAUAUUACGGCUA, the “self-splicing fitness (ln)” value is -0.811 ± 0.093 (30 °C) and -0.399 ± 0.11 (37 °C).
For GCUAAGCAAUAUUACGUCGG, in that order: -1.33 ± 0.099 and -0.876 ± 0.13.
For the sequence GCUAAGCAAUAUUACGUGAU, the “self-splicing fitness (ln)” value reads like this: (30 °C) -1.18 ± 0.073; (37 °C) -0.96 ± 0.11.
Regarding GCUAAGCAAUAUUACGUUAC, the “self-splicing fitness (ln)” value is -3.73 ± 0.26 (30 °C) and -1.01 ± 0.16 (37 °C).
Consider GCUAAGCAAUAUUACGUUCA, for which the “self-splicing fitness (ln)” value was -1.08 ± 0.07 (30 °C) and -0.54 ± 0.092 (37 °C).
Consider GCUCAGCAAUAUUACGAAAU, for which the “self-splicing fitness (ln)” value was -1.13 ± 0.11 (30 °C) and -0.319 ± 0.12 (37 °C).
With GCUCAGCAAUAUUACGACAU, the “self-splicing fitness (ln)” value is -0.812 ± 0.012 (30 °C) and -0.159 ± 0.032 (37 °C).
For GCUCAGCAAUAUUACGACGG, in that order: -2.33 ± 0.18 and -1.3 ± 0.16.
For GCUCAGCAAUAUUACGAGUA, in that order: -0.337 ± 0.098 and -0.433 ± 0.1.
With GCUCAGCAAUAUUACGAGUC, the “self-splicing fitness (ln)” value (30 °C) was -4.08 ± 0.26.
In the case of GCUCAGCAAUAUUACGAUAC, the “self-splicing fitness (ln)” value is, setting by setting: (30 °C) -1.15 ± 0.13; (37 °C) -0.697 ± 0.17.
For GCUCAGCAAUAUUACGAUAU, in that order: -0.622 ± 0.084 and 0.0543 ± 0.09.
With GCUCAGCAAUAUUACGAUGU, the “self-splicing fitness (ln)” value by setting is: (30 °C) 0.0549 ± 0.065; (37 °C) -0.345 ± 0.077.
As for GCUCAGCAAUAUUACGCAAG, the “self-splicing fitness (ln)” value by setting is: (30 °C) -2.83 ± 0.42; (37 °C) -1.69 ± 0.23.
In the case of GCUCAGCAAUAUUACGCAUA, the “self-splicing fitness (ln)” value reads like this: (30 °C) -1.48 ± 0.18; (37 °C) 0.283 ± 0.17.
For GCUCAGCAAUAUUACGCUAG, in that order: -1.03 ± 0.075 and -0.659 ± 0.11.
